Experimental data: patent publication US20120009180A1 (Kyowa Kirin, published 2012)

Key:
[1] = target: T1, Aβ monomers prepared from Biotin-beta-Amyloid, Human 1-40 (human, UniProt P05067 672-711, biotin (Biotin-beta-Amyloid; position of the biotin not stated)); test: SPR (Biacore T100), biotin-Aβ1-40 monomers captured on SA chip, antibody injected
T1 construct: domain: beta-Amyloid 1-40; captured through biotin on an SA sensor chip; also called amyloid β protein monomer
Description: In order to analyze the binding activity of the respective anti-Aβ oligomer humanized antibodies (HV0LV0, HV5aLV0, HV5aLV1b, HV5aLV3, HV6LV0, HV6LV1b, and HV6LV3) against Aβ monomers, the binding activity was measured in the same manner as in (1) of this Example. In addition, the binding activity of anti-Aβ antibody 6E10 (manufactured by CONVANCE) was measured as a control antibody.
The Aβ monomers obtained in (2) of Example (2) were immobilized to the SA sensor chip (manufactured by GE Healthcare Bio-sciences) by the biotin capturing method. Onto the chip to which the Aβ monomers were immobilized, samples for measurement, which were prepared to have 5 levels of density by diluting from 30 μg/mL by doubling dilution in a stepwise manner (HV0LV0, HV5aLV0, HV5aLV1b, HV5aLV3, HV6LV0, HV6LV1b, and HV6LV3) were sequentially injected and measured in the order from the lower density based on the automatic program of the multi-kinetics mode.

[2] = target: T2, Aβ oligomers prepared from Amyloid β-protein, Human 1-42 peptide (human, UniProt P05067 672-713); test: SPR (Biacore T100), Aβ oligomers amine-coupled to CM5 chip, antibody injected, Bivalent Analyte model (ka1)
T2 construct: domain: Amyloid β-protein 1-42; Oligomeric preparation (HFIP, DMSO, acetic acid solution pH 4.5, overnight at 4 °C); Amine-coupled to a CM5 chip; also called amyloid β oligomer
Description: (§1) All the following operations were performed using Biocore T100 (manufactured by GE Healthcare Bio-sciences). The Aβ oligomers obtained in (1) of Example 2 were immobilized to the CM5 sensor chip (GE Healthcare Bio-sciences) using the amine coupling method.
(§2) Onto the chip to which the Aβ oligomers were immobilized for measurement samples prepared to have 8 levels of density by diluting from 30 μg/mL by doubling dilution in a stepwise manner (HV0LV0, HV5aLV0, HV5aLV1b, HV5aLV3, HV6LV0, HV6LV1b, and HV6LV3) was sequentially injected and measured in the order from the lower density based on the automatic program of the multi-kinetics.
(§3) Using the analysis software attached to the device, Biacore T100 Evaluation software (manufactured by Biacore Life Science), analysis was carried out with the Bivalent Analyte model to calculate the binding rate constant ka and the dissociation rate constant kd of each of the antibody against Aβ oligomers.

[3] = target: T2, Aβ oligomers prepared from Amyloid …; test: SPR (Biacore T100), Aβ oligomers amine-coupled to CM5 chip, antibody injected, Bivalent Analyte model (kd1/ka1)
Description: as §1, §2, §3

[4] = target: T2, Aβ oligomers prepared from Amyloid …; test: SPR (Biacore T100), Aβ oligomers amine-coupled to CM5 chip, antibody injected, Bivalent Analyte model (kd1)
Description: as §1, §2, §3

T1 sequence (P05067 672-711 limits assumed): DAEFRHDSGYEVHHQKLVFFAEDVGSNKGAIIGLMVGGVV
T2 sequence (P05067 672-713 limits assumed): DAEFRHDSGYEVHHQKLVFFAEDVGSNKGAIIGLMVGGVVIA

Row | Binder | binding result [1] | kon [2] [M⁻¹ s⁻¹] | Kd [3] [nM] | koff [4] [s⁻¹]
1 | anti-Aβ oligomer humanized antibody HV0LV0 (antibody, V domains shown, purified on Prosep vA; also called HV0LVV0; 4H5HV0 + 4H5LV0) VH: DVQLVESGGGVVQPGRSLRLSCAASGFTFSSFGMHWVRQAPGKGLQWMVYISSGSSTIYYADTVKGRFTISRDNSRSTLFLQMNSLRGEDTAVYYCARTGTRAYWGQGTLVTVSS VL: DIVMTQSPLSLPVTPGEPASISCRSSQSIVHSNGNTYLEWYLQKPGQSPQLLIYKVSNRFSGVPDRFSGSGSGTDFTLKISRVEAEDVGVYYCFQGSHVPPTFGQGTKLEIK | no binding | 14000 | 100 | 0.0014
2 | anti-Aβ oligomer humanized antibody HV6LV3 (antibody, V domains shown) VH: DVQLVESGGGVVQPGRSLRLSCAASGFTFSSFGMHWVRQAPGKGLEWVAYISSGSSTIYYADTVKGRFTISRDNSRNTLFLQMNSLRGEDTAMYYCAGTGTRAYWGQGTLVTVSS VL: DVVMTQSPLSLPVTLGEPASISCRSSQSIVHSNGNTYLEWYLQKPGQSPKLLIYKVSNRFSGVPDRFSGSGSGTDFTLKISRVEAEDVGVYYCFQGSHVPPTFGQGTKLEIK | no binding | 8200 | 110 | 0.00092

Continued, values first:

Row | binding result [1] | kon [2] [M⁻¹ s⁻¹] | Kd [3] [nM] | koff [4] [s⁻¹] | Binder
3 | no binding | 11000 | 55 | 0.00063 | anti-Aβ oligomer humanized antibody HV5aLV0 (antibody, V domains shown, also called HV5aVL0) VH: DVQLVESGGGVVQPGRSLRLSCAASGFTFSSFGMHWVRQAPGKGLEWVAYISSGSSTIYYADTVKGRFTISRDNSRSTLFLQMNSLRGEDTAMYYCAGTGTRAYWGQGTLVTVSS VL: DIVMTQSPLSLPVTPGEPASISCRSSQSIVHSNGNTYLEWYLQKPGQSPQLLIYKVSNRFSGVPDRFSGSGSGTDFTLKISRVEAEDVGVYYCFQGSHVPPTFGQGTKLEIK
4 | no binding | 9800 | 90 | 0.00088 | anti-Aβ oligomer humanized antibody HV5aLV1b (antibody, V domains shown) VH: DVQLVESGGGVVQPGRSLRLSCAASGFTFSSFGMHWVRQAPGKGLEWVAYISSGSSTIYYADTVKGRFTISRDNSRSTLFLQMNSLRGEDTAMYYCAGTGTRAYWGQGTLVTVSS VL: DIVMTQSPLSLPVTLGEPASISCRSSQSIVHSNGNTYLEWYLQKPGQSPQLLIYKVSNRFSGVPDRFSGSGSGTDFTLKISRVEAEDVGVYYCFQGSHVPPTFGQGTKLEIK
